Reference: patent publication US20240132578A1
Changes are numbered by the printed parent chain.

Assays:
Test in all cases: cell-based or functional assay
[1] = target: HIV-1 Env of isolate MGRM-C-015 (subtype C) (HIV-1)
[2] = target: HIV-1 Env of isolate MGRM-C-022 (subtype C) (HIV-1)
[3] = target: HIV-1 Env of isolate MGRM-G-019 (subtype G), on pseudovirus (HIV-1)
[4] = target: HIV-1 Env of isolate MGRM-G-015 (subtype G), on pseudovirus (HIV-1)
[5] = target: HIV-1 Env of isolate MGRM-C-026 (subtype C) (HIV-1)
[6] = target: HIV-1 Env of isolate MGRM-G-011 (subtype G), on pseudovirus (HIV-1)
[7] = target: HIV-1 Env of isolate MGRM-C-004 (subtype C) (HIV-1)
[8] = target: HIV-1 Env of isolate 97ZA012 (subtype C) (HIV-1)
[9] = target: HIV-1 Env of isolate MGRM-G-006 (subtype G), on pseudovirus (HIV-1)
[10] = target: HIV-1 JR-CSF Env P470A (HIV-1 JR-CSF) (UniProt P20871)
[11] = target: HIV-1 Env of isolate MGRM-G-004 (subtype G), on pseudovirus (HIV-1)
[12] = target: HIV-1 Env of isolate MGRM-C-013 (subtype C) (HIV-1)
[13] = target: HIV-1 Env of isolate MGRM-G-017 (subtype G), on pseudovirus (HIV-1)
[14] = target: HIV-1 JR-CSF Env R480A (HIV-1 JR-CSF) (UniProt P20871)
[15] = target: HIV-1 Env of isolate MGRM-G-009 (subtype G), on pseudovirus (HIV-1)
[16] = target: aMLV envelope, on pseudovirus (negative control)
[17] = target: HIV-1 Env of isolate MGRM-C-017 (subtype C) (HIV-1)
[18] = target: HIV-1 Env of isolate MGRM-C-008 (subtype C) (HIV-1)
[19] = target: HIV-1 Env of isolate MGRM-C-027 (subtype C) (HIV-1)
[20] = target: HIV-1 Env of isolate 93MW959 (subtype C) (HIV-1)
[21] = target: HIV-1 Env of isolate MGRM-G-027 (subtype G), on pseudovirus (HIV-1)
[22] = target: HIV-1 Env of isolate MGRM-G-024 (subtype G), on pseudovirus (HIV-1)
[23] = target: HIV-1 Env of isolate MGRM-C-023 (subtype C) (HIV-1)
[24] = target: HIV-1 Env of isolate MGRM-C-005 (subtype C) (HIV-1)
[25] = target: HIV-1 Env of isolate MGRM-C-012 (subtype C) (HIV-1)
[26] = target: HIV-1 Env of isolate MGRM-C-006 (subtype C) (HIV-1)
[27] = target: HIV-1 Env of isolate MGRM-C-014 (subtype C) (HIV-1)
[28] = target: HIV-1 Env of isolate MGRM-C-024 (subtype C) (HIV-1)
[29] = target: HIV-1 Env of isolate MGRM-G-013 (subtype G), on pseudovirus (HIV-1)
[30] = target: HIV-1 Env of isolate MGRM-G-028 (subtype G), on pseudovirus (HIV-1)
[31] = target: HIV-1 Env of isolate MGRM-C-028 (subtype C) (HIV-1)
[32] = target: HIV-1 Env of isolate MGRM-C-019 (subtype C) (HIV-1)
[33] = target: HIV-1 Env of isolate MGRM-G-014 (subtype G), on pseudovirus (HIV-1)
[34] = target: HIV-1 Env of isolate MGRM-G-025 (subtype G), on pseudovirus (HIV-1)
[35] = target: HIV-1 Env of isolate MGRM-C-020 (subtype C) (HIV-1)
[36] = target: HIV-1 Env of isolate MGRM-C-009 (subtype C) (HIV-1)
[37] = target: HIV-1 Env of isolate MGRM-C-007 (subtype C) (HIV-1)
[38] = target: HIV-1 Env of isolate 98IN022 (subtype C) (HIV-1)
[39] = target: HIV-1 Env of isolate MGRM-C-001 (subtype C) (HIV-1)
[40] = target: HIV-1 Env of isolate MGRM-C-010 (subtype C) (HIV-1)
[41] = target: HIV-1 Env of isolate MGRM-G-016 (subtype G), on pseudovirus (HIV-1)
[42] = target: HIV-1 Env of isolate MGRM-C-025 (subtype C) (HIV-1)
[43] = target: HIV-1 Env of isolate MGRM-G-001 (subtype G), on pseudovirus (HIV-1)
[44] = target: HIV-1 Env of isolate MGRM-C-002 (subtype C) (HIV-1)
[45] = target: HIV-1 Env of isolate APV_17 (subtype B) (HIV-1)
[46] = target: HIV-1 Env of isolate APV 6 (subtype B) (HIV-1)
[47] = target: HIV-1 Env of isolate 93TH305 (subtype B) (HIV-1)
[48] = target: HIV-1 Env of isolate 92BR020 (subtype B) (HIV-1)
[49] = target: HIV-1 Env of isolate 6535.3 (subtype B) (HIV-1)
[50] = target: HIV-1 Env of isolate APV 13 (subtype B) (HIV-1)

B1: PGT-126 (antibody, V domains shown)
VH: QPQLQESGPGLVEASETLSLTCTVSGDSTAACDYFWGWVRQPPGKGLEWIGGLSHCAGYYNTGWTYHNPSLKSRLTISLDTPKNQVFLKLNSVTAADTAIYYCARFDGEVLVYHDWPKPAWVDLWGRGTLVTVSS
VL: QSALTQPPSASGSPGQSISISCTGTSNRFVSWYQQHPGKAPKLVIYGVNKRPSGVPDRFSGSKSGNTASLTVSGLQTDDEAVYYCSSLVGNWDVIFGGGTKLTVL
IC50 (µg/mL), pseudovirus neutralization [1]: 3.14 µg/mL | IC50 (µg/mL), pseudovirus neutralization [2]: 0.96 µg/mL | IC50 (µg/mL), neutralization of pseudovirus [3]: 0.018 µg/mL | IC50 (µg/mL), neutralization of pseudovirus [4]: > 50 µg/mL | IC50 (µg/mL), pseudovirus neutralization [5]: 0.007 µg/mL | IC50 (µg/mL), neutralization of pseudovirus [6]: 7.32 µg/mL | IC50 (µg/mL), pseudovirus neutralization [7]: 0.033 µg/mL | IC50 (µg/mL), pseudovirus neutralization [8]: 0.042 µg/mL | IC50 (µg/mL), neutralization of pseudovirus [9]: > 50 µg/mL | Fold IC50 increase relative to wild-type [10]: 2.7 fold | IC50 (µg/mL), neutralization of pseudovirus [11]: > 50 µg/mL | IC50 (µg/mL), pseudovirus neutralization [12]: > 50 µg/mL | IC50 (µg/mL), neutralization of pseudovirus [13]: > 50 µg/mL | Fold IC50 increase relative to wild-type [14]: 1.9 fold | IC50 (µg/mL), neutralization of pseudovirus [15]: > 50 µg/mL | IC50 (µg/mL), neutralization of pseudovirus [16]: > 50 µg/mL | IC50 (µg/mL), pseudovirus neutralization [17]: 0.17 µg/mL | IC50 (µg/mL), pseudovirus neutralization [18]: 2.12 µg/mL | IC50 (µg/mL), pseudovirus neutralization [19]: 15.6 µg/mL | IC50 (µg/mL), pseudovirus neutralization [20]: 9.44 µg/mL | IC50 (µg/mL), neutralization of pseudovirus [21]: 0.875 µg/mL | IC50 (µg/mL), neutralization of pseudovirus [22]: > 50 µg/mL | IC50 (µg/mL), pseudovirus neutralization [23]: 0.065 µg/mL | IC50 (µg/mL), pseudovirus neutralization [24]: 0.298 µg/mL | IC50 (µg/mL), pseudovirus neutralization [25]: 0.111 µg/mL | IC50 (µg/mL), pseudovirus neutralization [26]: 0.014 µg/mL | IC50 (µg/mL), pseudovirus neutralization [27]: > 50 µg/mL | IC50 (µg/mL), pseudovirus neutralization [28]: > 50 µg/mL | IC50 (µg/mL), neutralization of pseudovirus [29]: 48.8 µg/mL | IC50 (µg/mL), neutralization of pseudovirus [30]: 0.012 µg/mL | IC50 (µg/mL), pseudovirus neutralization [31]: 0.196 µg/mL | IC50 (µg/mL), pseudovirus neutralization [32]: 0.005 µg/mL | IC50 (µg/mL), neutralization of pseudovirus [33]: 0.009 µg/mL | IC50 (µg/mL), neutralization of pseudovirus [34]: 17.1 µg/mL | IC50 (µg/mL), pseudovirus neutralization [35]: > 50 µg/mL | IC50 (µg/mL), pseudovirus neutralization [36]: > 50 µg/mL | IC50 (µg/mL), pseudovirus neutralization [37]: 25.3 µg/mL | IC50 (µg/mL), pseudovirus neutralization [38]: 0.279 µg/mL | IC50 (µg/mL), pseudovirus neutralization [39]: > 50 µg/mL | IC50 (µg/mL), pseudovirus neutralization [40]: > 50 µg/mL | IC50 (µg/mL), neutralization of pseudovirus [41]: > 50 µg/mL | IC50 (µg/mL), pseudovirus neutralization [42]: 0.786 µg/mL | IC50 (µg/mL), neutralization of pseudovirus [43]: 0.038 µg/mL | IC50 (µg/mL), pseudovirus neutralization [44]: 0.011 µg/mL

B2: PGT-128 (antibody, V domains shown)
VH: QPQLQESGPTLVEASETLSLTCAVSGDSTAACNSFWGWVRQPPGKGLEWVGSLSHCASYWNRGWTYHNPSLKSRLTLALDTPKNLVFLKLNSVTAADTATYYCARFGGEVLRYTDWPKPAWVDLWGRGTLVTVSS
VL: B1 VL with S19T, R28N, P37A, G47D, S86G
IC50 (µg/mL), neutralization of pseudovirus [3]: 0.01 µg/mL | IC50 (µg/mL), neutralization of pseudovirus [4]: > 50 µg/mL | IC50 (µg/mL), neutralization of pseudovirus [6]: 8.21 µg/mL | IC50 (µg/mL), pseudovirus neutralization [45]: 0.016 µg/mL | IC50 (µg/mL), pseudovirus neutralization [46]: 0.007 µg/mL | IC50 (µg/mL), neutralization of pseudovirus [9]: > 50 µg/mL | IC50 (µg/mL), neutralization of pseudovirus [11]: > 50 µg/mL | IC50 (µg/mL), neutralization of pseudovirus [13]: 0.319 µg/mL | Fold IC50 increase relative to wild-type [14]: 0.1 fold | IC50 (µg/mL), neutralization of pseudovirus [15]: > 50 µg/mL | IC50 (µg/mL), neutralization of pseudovirus [16]: > 50 µg/mL | IC50 (µg/mL), neutralization of pseudovirus [21]: 0.313 µg/mL | IC50 (µg/mL), neutralization of pseudovirus [22]: 0.095 µg/mL | IC50 (µg/mL), neutralization of pseudovirus [29]: 0.995 µg/mL | IC50 (µg/mL), neutralization of pseudovirus [30]: 0.008 µg/mL | IC50 (µg/mL), pseudovirus neutralization [47]: 0.006 µg/mL | IC50 (µg/mL), neutralization of pseudovirus [33]: 0.004 µg/mL | IC50 (µg/mL), neutralization of pseudovirus [34]: 0.017 µg/mL | IC50 (µg/mL), pseudovirus neutralization [48]: 0.009 µg/mL | IC50 (µg/mL), pseudovirus neutralization [49]: 0.011 µg/mL | IC50 (µg/mL), neutralization of pseudovirus [41]: > 50 µg/mL | IC50 (µg/mL), neutralization of pseudovirus [43]: 0.019 µg/mL | IC50 (µg/mL), pseudovirus neutralization [50]: 0.008 µg/mL
